Residue numbers refer to the chain shown, from its start. Where only a bound is given, the exact number is not on record here.

For experiment [1], the target named is RSV F on RSV-A2 virus (Respiratory syncytial virus, RSV-A2, UniProt P03420 26-574). The experiment is described as follows: cell-based or functional assay.
Experiment [2] has as its target RSV prefusion F (preF), DS-Cav1 (Respiratory syncytial virus, UniProt P03420 26-513). The experiment is described as follows: BLI, IgG on anti-human IgG sensor, 100 nM antigen.
Experiment [3] has as its target RSV postfusion F (postF), F ΔFP (Respiratory syncytial virus, UniProt P03420 26-513). In words: BLI, IgG on anti-human IgG sensor. (Biolayer interferometry detects binding as a change in optical thickness at a sensor tip.)
The target in experiment [4] is RSV F on RSV subtype A virus (RSV-A2) (Respiratory Syncytial Virus, subtype A, …, UniProt P03420 26-574). The experiment is described as follows: cell-based or functional assay.
Experiment [5] concerns the target RSV postfusion F (postF), F ΔFP trimer, subtype A (Respiratory Syncytial Virus, subtype A, UniProt P03420 26-513). In words: BLI, IgG (Table 9A).
Experiment [6] deals with RSV prefusion F (preF), DS-Cav1 stabilized trimer, subtype A (Respiratory Syncytial Virus, subtype A, UniProt P03420 26-513). In words: BLI, apparent IgG KD (Table 9A).

B1: ADI-41578 (antibody, V domains shown)
VH: EVQLVESGGGVVQPGRSLRLSCAASGFTLSSYVMDWVRQAPGKGLEWVAVISYDGSSKYYADSVKGRFTVSRDNSNNAMYLQMNSLRAEDTAVYYCARDPYYDILTGYSYFDYWGHGTTVTVSS
VL: SYVLTQPPSVSGAPRQTATITCGGNNIGSKSVNWYQQKPGQAPVLVVYDDSARPSGIPERFSGSNSGNTATLTVSSVEAGDEADYFCQVWDTSSAPYPWVFGGGTKLTVL
notes: also called Ab 852; Antibody Number 852
As for B1, the “Neutralization IC50 (RSV subtype A)” value in experiment [1] was 0.0398 µg/mL. In addition, the Kd in experiment [2] worked out at 0.249 nM. Further, in experiment [3], the binding result was “no binding (tested: 100 nM antigen)”.

B2: ADI-36678 (antibody, V domains shown)
VH: EVQLVQSGGGLVQPGGSLRVSCAASGLTVSTNYMSWVRQLPGKGLEWVSVIYSGGNTYYADSVKGRFTISRDNSKNIVYLEMNSLRIEDTAVYYCARAHLNNWFVSVTDTKDYYFDYWGQGTLVTVSS
VL: SYELTQPPSVSVLPGQTASITCSGDKLGDKYASWYQQKPGQSPILVVFQDDKRPSGIPERFSGSNSGNTATLTISGTQATDEADYYCQACDRNTGVFGTGTKLTVL
For B2, the “Neutralization IC50 (RSV subtype A)” value in experiment [1] is 0.006 µg/mL. In experiment [2], this molecule returned a Kd of 0.716 nM. In addition, the binding result in experiment [3] is listed as “no binding (tested: 100 nM antigen)”.

B3: ADI-41809 (antibody, V domains shown)
VH: QVTLKESGGGLVQPGGSLRLSCAASGFTFSNYAMSWVRQAPGKGLEWVSAISHSDSRTFYADSVKGRFTISRDNSKNTLFLQMDSLRAHDTAVYYCANVDPSSVTYYGYYYGMDVWGQGTTVTVSS
VL: QSVLTQPPSASGTPGQRVTISCSGSSSNIGKNFVYWYQQFPGTAPKRLIYRNNQRPSGVPDRFSGSRSGTSASLAISGLRSEDEADYYCATWDDSLSGWVFGGGTKLTVL
For B3, the “Neutralization IC50 (RSV subtype A)” value in experiment [1] was greater than 25 µg/mL. In experiment [2], this molecule had a Kd of 2.65 nM. Further, the binding result in experiment [3] is “no binding (tested: 100 nM antigen)”.

B4: ADI-36669 (antibody, V domains shown)
VH: EVQLVQSGAEVKKPGASVRVYCKASGYTFTTYYIHWVRQAPGQGLEWMGMINPSGGTTSYAQKFQGRLTMTGDTSTSTVYMELNYLRSEDTAVYYCTRDFIYFYGSGDGFDYWGQGTLVTVSS
VL: EIVMTQSPSAMSASVGDRVTITCRASQGISNYLAWFQQKPGKVPKRLIYAASSLQSGVPSRFSGSGSGTEFTLTITSLQPEDFATYYCLQHNSYPFTFGPGTKVEIK
Consider B4, for which, in experiment [4], the “Neutralization - RSV A2 IC50 (pM)” value came out at 111 pM and the “neut IC50 (ug/ml) subtype A (wright)” value turned out to be 0.025 µg/mL. For the same molecule, the binding result in experiment [5] is recorded as “no binding”. In addition, the Kd in experiment [6] came out at 1.1 nM.

B5: ADI-36673 (antibody, V domains shown)
VH: QVQLVQSGGGLVKPGGSLRLSCAASGFTFRDFYMSWIRQAPGKGLEWVSNISPSSTYTNYADSVKGRFTISRDNAKNSLYLQMNSLRAEDTAVYYCVKSEGYSSGWYDYWGQGTLVTVSS
VL: QPVLTQPPSVSGAPGQRVTISCTGSSSNIGAGYDVNWYHQLPGAAPKLLIYTNSNRPSGVPDRFSGSKSGTSASLAITGLQAEDEADYYCQSYDSSLSGYVFGTGTKLTVL
notes: also called Ab 830; Antibody Number 830
As to B5, in experiment [1], the “Neutralization IC50 (RSV subtype A)” value came out at 0.02 µg/mL. Moreover, the Kd in experiment [2] is 0.62 nM. Also, the binding result in experiment [3] was “no binding (tested: 100 nM antigen)”.

B6: ADI-41591 (antibody, V domains shown)
VH: QVTLKESGGGLVKPGGSLRLSCAASGFTFSDYYMSWIRQAPGKGLEWVSYISSSSSYTNYADSVKGRFTISRDNAKNSLYLQMNSLRAEDTAVYYCAREAVAAAGTDYFDYWGQGTLVTVSS
VL: B5 VL with P2S, N36H, H39Q, L41P, G43R, A44T, T52G
notes: also called Ab 865; Antibody Number 865
On to B6, for which the “Neutralization IC50 (RSV subtype A)” value in experiment [1] was greater than 25 µg/mL. The Kd in experiment [2] is 4.26 nM. For the same molecule, in experiment [3], the binding result was “no binding (tested: 100 nM antigen)”.

B7: ADI-41590 (antibody, V domains shown)
VH: EVQLVQSGGGLVKPGGSLRLSCTASGFTFSDHYMSWIRQAPGKGLEWISYISSTSSFTNYANSVKGRFTISRDNAKNSLYLQMNSLRAEDTAVYYCARDRSILYSGYSLDYWGQGTLVTVSS
VL: DIQMTQSPSSLSASVGDRVTISCRASQSILNYLNWYQHKPGKAPKLLIYAASSLQSGVPSRFSGSGSGTDFTLTISGLQPEDFATYYCQQSDSTRTFGQGTKVEIK
As for B7, the “Neutralization IC50 (RSV subtype A)” value in experiment [1] was greater than 25 µg/mL. The same molecule gave a Kd in experiment [2] of 3.02 nM. The binding result in experiment [3] is listed as “no binding (tested: 100 nM antigen)”.

B8: ADI-41567 (antibody, V domains shown)
VH: QVQLQQWGAGLLKPSETLSLTCEVYGGSFSGYYWTWFRQPPGEGLEWIGEINHSGGTNYNPSLKSRVTMSVDASINQFSLQLSSVTAADTSVYYCARGHYYNTNDFYGLFDYWGQGTLVTVSS
VL: DIRLTQSPSFLSASVGDRVTITCRASQGISTYLAWYQQKPGKAPKLLLYAASTLHSGVPSRFSGSGSGTEFTLTISSLQPEDFATYYCQQLNRYPPSTFGPGTKLEIK
notes: also called Ab 845; Antibody Number 845
For the molecule B8, the “Neutralization IC50 (RSV subtype A)” value in experiment [1] is 0.0505 µg/mL. Also, the Kd in experiment [2] worked out at 0.717 nM. In experiment [3], the binding result is given as “no binding (tested: 100 nM antigen)”.

B9: ADI-41609 (antibody, V domains shown)
VH: QVQLVESGAEVKKPGASVKVSCKASGYSFTSYYMHWVRQAPGQGLEWMGVISTNGGTASYSQNFRGRVTLTRDTSTSTAYMELSSLTSEDTAVYYCVREGYCNGGSCSYFDSWGQGTLVTVSS
VL: QSVLTQPPSVSGAPGQRVSISCTGSSSNIGAGYDVHWYQQLPGTAPKVLIYGNNYRPSGVPDRFSGSKSGTSASLAITGLQTEDEADYYCQSYDSRLSVVFGGGTKLTVL
Consider B9, for which, in experiment [1], the “Neutralization IC50 (RSV subtype A)” value was greater than 25 µg/mL. This molecule gave a Kd in experiment [2] of 29.1 nM. The binding result in experiment [3] is “no binding (tested: 100 nM antigen)”.

B10: ADI-36672 (antibody, V domains shown)
VH: EVQLVESGGGLVKPGGSLRLSCAASGFAFNNYYMNWVRQAPGKGLEWVSSISSASTYTDYADSVKGRFTISRDNAKNSLYLHLNSLRAEDTAVYYCARDYYGSGNYYNPKPLDVWGQGTTVTVSS
VL: QPVLTQPPSVSGAPGQRVTISCTGSSSNIGAGYDVHWYRQFPGTAPELLIYGNTNRPSGVPDRFSGSKSGTSASLAITGLQAEDEADYYCQSYDSSLKGVFGGGTKLTVL
In the case of B10, in experiment [4], the “Neutralization - RSV A2 IC50 (pM)” value stood at 207 pM and the “neut IC50 (ug/ml) subtype A (wright)” value was found to be 0.018 µg/mL. The binding result in experiment [5] is listed as “no binding”. For the same molecule, the Kd in experiment [6] turned out to be 0.7 nM.

B11: ADI-36676 (antibody, V domains shown)
VH: EVQLLESGGGVVQPGRSLRLSCAASGFSFRNYDMHWVRQAPGKGLEWVAIISYDGSNKYADSVKGRFTISRDTSKNTLYLQMNSLRVEDTAVYYCARADSSGYYKGSEYFQHWGQGTLVTVSS
VL: SYELTQLPSVSVAPGQTARITCGGNNIGTKSVQWYQHKPGQAPVLVVYDDSDRPSDIPERFSGSNSGNTATLTISRVEAGDEADYYCQVWDSSSDHYVFGTGTKLTVL
notes: also called Ab 832; Antibody Number 832
With B11, the “Neutralization IC50 (RSV subtype A)” value in experiment [1] was 0.006 µg/mL. In experiment [2], this molecule came in with a Kd of 0.282 nM. Also, the binding result in experiment [3] is recorded as “no binding (tested: 100 nM antigen)”.

B12: ADI-41601 (antibody, V domains shown)
VH: EVQLLESGGGLVKPGGSLRLSCAGSGFRFSDYYMTWIRQAPGKGLEWVSYISSSSTYTYYTDSVKGRFTVSRDNAKNSLYLQMNTLRAEDTAIYYCAISNRYDSRTFYYDYWGQGTLVTVSS
VL: QSVLTQPPSVSGAPGQRVIISCTGSSSNIGAGYDVHWYQQFPGTAPKLLIYGNNNRPSGVPERFSGSKSGTSASLAITGLQADDEADYYCQSYDSLSEVVFGGGTKVTVL
notes: also called Ab 875; Antibody Number 875
Turning to B12, in experiment [1], the “Neutralization IC50 (RSV subtype A)” value was greater than 25 µg/mL. For the same molecule, the Kd in experiment [2] is 0.503 nM. The binding result in experiment [3] is listed as “no binding (tested: 100 nM antigen)”.

These data come from patent publication US20260258115A1 (MAPP BIOPHARMACEUTICAL, published 2026).
